Assay results reported in publication PMC6274716.
Non-standard residues stand in square brackets, D forms with d. *: point of attachment. Biotin = O=C1N[C@H]2[C@H](CS[C@H]2CCCCC(=O)*)N1; pT = C[C@@H](OP(=O)(O)O)[C@H](N)C(=O)O

Columns and labels:
Assay in all cases: ELISA; competition: FHA clone binding to immobilized phosphorylated Akt1 peptide in the presence of free phosphorylated peptide; IC50
[1] = target: FHA variant E12 (Akt1-pTBD) (yeast)
[2] = target: FHA variant E1 (yeast)
[3] = target: FHA variant B3 (yeast)
[4] = target: FHA variant H11 (yeast)

Question: What does the source list for Biotin-KDGATMK[pT]FCGTPEY-NH2 (not fully specified (residue 12)) [Akt1-pT308 peptide]?
Answer: IC50 [1]: 45 nM; IC50 [2]: 1950 nM; IC50 [3]: 100000 nM; IC50 [4]: 90 nM
